Publication PMC3156286 (Journal of molecular biology, 2011)

Target: the molecule itself
Assay: SEC

B1: full length Nhp2p (natural protein, S. cerevisiae, UniProt P32495 1-156, looked up)
chain: MGKDNKEHKESKESKTVDNYEARMPAVLPFAKPLASKKLNKKVLKTVKKASKAKNVKRGVKEVVKALRKGEKGLVVIAGDISPADVISHIPVLCEDHSVPYIFIPSKQDLGAAGATKRPTSVVFIVPGSNKKKDGKNKEEEYKESFNEVVKEVQAL
Question: With B1 as the protein, how does the “stoichiometry N” value read?
Answer: The value was 2.
